Results on four molecules are retold here after patent US20190309094A1 (Y BIOLOGICS, published 2019).

One assay has as its target CD3 (Sino Biological). Kind of assay: ELISA on CD3, curve fit. The protocol: Next day, plate was washed once with 200 μl of PBST, and then a surface blocking was performed at room temperature with 5% skim milk for 1-2 hours. […] Each well was then washed three times with 200 μl of PB ST to remove unbound samples. Horseradish peroxidase (HRP)-conjugated anti-human IgG (Fab specific) antibodies (Sigma, USA) were added to wells at a ratio of 1:1000 for a reaction at room temperature. After three times of washing with 200 ul of PBST, a color reaction of HRP was induced using TMB solution (GEhealthcare, USA) in a volume of 100 μl/well. The reaction was terminated by using a stop solution (2.5 M H₂SO₄, 100 μl/well). A spectrophotometer was used to measure the absorbance at a wavelength of A450 to calculate the binding affinity.

For the next assay, the target named is PD-L1 expressed on cells (UniProt Q9NZQ7 19-290, limits assumed). The assay can be described thus: cell-based or functional assay.

Numbering of substitutions follows the chain as printed.

Chain of CD3 (Sino Biological) (P07766 23-126, chain 1 of 2): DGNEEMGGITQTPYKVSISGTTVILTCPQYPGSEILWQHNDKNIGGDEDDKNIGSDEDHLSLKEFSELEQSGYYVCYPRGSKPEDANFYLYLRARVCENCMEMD
Chain of CD3 (Sino Biological) (P04234 22-105, chain 2 of 2, further chain): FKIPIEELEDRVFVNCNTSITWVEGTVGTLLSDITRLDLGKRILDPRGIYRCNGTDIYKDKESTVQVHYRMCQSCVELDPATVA
Chain of PD-L1 expressed on cells (Q9NZQ7 19-290 limits assumed): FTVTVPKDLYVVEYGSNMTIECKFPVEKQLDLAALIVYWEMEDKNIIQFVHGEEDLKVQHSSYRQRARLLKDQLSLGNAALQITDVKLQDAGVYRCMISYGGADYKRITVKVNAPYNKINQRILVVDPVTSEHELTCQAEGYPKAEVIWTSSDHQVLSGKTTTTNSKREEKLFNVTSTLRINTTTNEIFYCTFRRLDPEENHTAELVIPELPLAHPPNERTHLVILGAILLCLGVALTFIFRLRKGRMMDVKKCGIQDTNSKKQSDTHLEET

B1: UCHT1 (antibody, V domains shown)
VH: EVQLQQSGPELVKPGPSMKISCKASGYSFTGYTMNWVKQSHGKNLEWMGLINPYKGVSTYNQKFKDKATLTVDKSSSTAYMELLSLTSEDSAVYYCARSGYYGDSDWYFDVWGQGTTLTVFS
VL: DIQMTQTTSSLSASLGDRVTISCRASQDIRNYLNWYQQKPDGTVKLLIYYTSRLHSGVPSKFSGSGSGTDYSLTISNLEQEDIATYFCQQGNTLPWTFAGGTKLEIKR
notes: A bought antibody (BioLegend); also called parental anti-CD3 antibody
In the assay with CD3 (Sino Biological), B1 displayed a Bmax of 3.67 OD 450 nm.

B2: ACE-05-VL2 (other)
heavy: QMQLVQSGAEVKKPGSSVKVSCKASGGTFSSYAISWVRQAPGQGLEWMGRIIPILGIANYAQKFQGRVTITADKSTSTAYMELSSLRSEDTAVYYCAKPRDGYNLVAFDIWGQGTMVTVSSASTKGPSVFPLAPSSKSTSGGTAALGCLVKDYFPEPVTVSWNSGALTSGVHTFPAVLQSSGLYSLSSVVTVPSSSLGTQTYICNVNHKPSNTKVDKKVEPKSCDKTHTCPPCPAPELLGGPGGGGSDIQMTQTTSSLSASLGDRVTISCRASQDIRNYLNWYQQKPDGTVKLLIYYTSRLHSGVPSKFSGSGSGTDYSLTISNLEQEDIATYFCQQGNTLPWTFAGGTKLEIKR
light: QLVLTQPPSVSGAPGQRVTISCTGSSSNIGAGYDVHWYQQLPGAAPKLLIYGDINRPSGVPDRFSGSKSGISASLAITGLQAEDEADYYCQSYDSSLSGGVFGGGTKLTVLRTVAAPSVFIFPPSDEQLKSGTASVVCLLNNFYPREAKVQWKVDNALQSGNSQESVTEQDSKDSTYSLSSTLTLSKADYEKHKVYACEVTHQGLSSPVTKSFNRGEC
As for B2, in the assay with PD-L1 expressed on cells, the “EC50 (read off the curve), PD-1/PD-L1 Blockade Bioassay” value was approximately 0.09 µg/mL.

B3: ACE-09 (bispecific antibody)
heavy 1: not shown
heavy 2: not shown
light: B2 light with T113S
notes: also called ACE-09-VH + ACE-09-VL + ACE-09-LC
Regarding B3, the Bmax in the assay with CD3 (Sino Biological) worked out at 4.04 OD 450 nm.

B4: ACE-05 (bispecific antibody)
heavy 1: not shown
heavy 2: not shown
light: B2 light
notes: also called ALiCE; ACE-05-VH + ACE-05-VL + ACE-05-LC
In the assay with CD3 (Sino Biological), B4 displayed a Bmax of 3.97 OD 450 nm.
